Measurements published in patent US20210032299A1.
Starred links: 1 amine or outer side, 2 acyl side, 3 side chain; linkers in the order of their positions; H or OH if unused. Non-standard residues stand in square brackets, D forms with d. Groups on a side chain read outwards from the residue. No end group written: not given here. *: point of attachment. C20 diacid = O=C(O)CCCCCCCCCCCCCCCCCCC(=O)*; C18 diacid = O=C(O)CCCCCCCCCCCCCCCCC(=O)*; αMePhe(2-F) = C[C@](N)(Cc1ccccc1F)C(=O)O; γGlu = O=C(O)[C@H](CCC(=O)[*:2])N[*:1]; αMeL = CC(C)C[C@](C)(N)C(=O)O; AEEA = NCCOCCOCC(=O)O; Aib = CC(C)(N)C(=O)O

Key:
[1] = target: human glucagon receptor (human), P47871; experiment: SPA, displacement of [125I]-Gcg from hGcgR membranes, 0.1% bacitracin
[2] = target: T1, human glucose-dependent insulinotropic polypeptide (GIP) receptor (human), P48546; experiment: SPA, displacement of [125I]-GIP from hGIPR membranes, 0.1% bacitracin
T1 chain: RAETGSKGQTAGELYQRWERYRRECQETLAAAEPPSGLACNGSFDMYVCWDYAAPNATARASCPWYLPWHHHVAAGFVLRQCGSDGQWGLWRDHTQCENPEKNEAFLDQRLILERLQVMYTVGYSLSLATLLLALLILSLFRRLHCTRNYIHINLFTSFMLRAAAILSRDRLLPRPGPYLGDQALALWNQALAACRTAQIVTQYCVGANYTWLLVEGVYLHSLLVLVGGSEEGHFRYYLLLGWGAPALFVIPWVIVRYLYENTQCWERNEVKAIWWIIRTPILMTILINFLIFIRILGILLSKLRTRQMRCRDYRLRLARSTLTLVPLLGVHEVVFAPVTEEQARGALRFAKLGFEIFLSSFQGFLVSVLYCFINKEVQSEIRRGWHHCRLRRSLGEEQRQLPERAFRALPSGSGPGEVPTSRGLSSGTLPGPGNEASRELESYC

Chain of human glucagon receptor (human), P47871 (P47871 26-477): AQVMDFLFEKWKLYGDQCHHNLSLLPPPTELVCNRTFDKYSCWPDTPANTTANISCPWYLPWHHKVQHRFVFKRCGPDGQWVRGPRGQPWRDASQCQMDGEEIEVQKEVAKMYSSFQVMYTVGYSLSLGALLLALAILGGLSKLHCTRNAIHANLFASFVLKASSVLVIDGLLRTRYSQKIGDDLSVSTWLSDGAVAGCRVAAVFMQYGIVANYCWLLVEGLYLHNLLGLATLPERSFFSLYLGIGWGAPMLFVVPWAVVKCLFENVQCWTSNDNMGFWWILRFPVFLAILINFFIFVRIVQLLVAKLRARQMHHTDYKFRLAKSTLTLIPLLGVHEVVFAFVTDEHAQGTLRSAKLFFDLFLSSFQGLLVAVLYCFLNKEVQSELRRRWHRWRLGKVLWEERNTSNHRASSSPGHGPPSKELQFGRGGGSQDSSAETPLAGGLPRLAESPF

B1: Example 94 (peptide)
peptide: Y[Aib]EGT[αMePhe(2-F)]ISDYSIALDKIHQ[Aib]EFVNYK([AEEA-AEEA-γGlu-C18 diacid])LAGGPSSGAPPPS-NH2
modifications: N-terminus assumed
SMILES: CC[C@H](C)[C@H](NC(=O)[C@H](CO)NC(=O)[C@H](Cc1ccc(O)cc1)NC(=O)[C@H](CC(=O)O)NC(=O)[C@H](CO)NC(=O)[C@@H](NC(=O)[C@](C)(Cc1ccccc1F)NC(=O)[C@@H](NC(=O)CNC(=O)[C@H](CCC(=O)O)NC(=O)C(C)(C)NC(=O)[C@@H](N)Cc1ccc(O)cc1)[C@@H](C)O)[C@@H](C)CC)C(=O)N[C@@H](C)C(=O)N[C@@H](CC(C)C)C(=O)N[C@@H](CC(=O)O)C(=O)N[C@@H](CCCCN)C(=O)N[C@H](C(=O)N[C@@H](Cc1c[nH]cn1)C(=O)N[C@@H](CCC(N)=O)C(=O)NC(C)(C)C(=O)N[C@@H](CCC(=O)O)C(=O)N[C@@H](Cc1ccccc1)C(=O)N[C@H](C(=O)N[C@@H](CC(N)=O)C(=O)N[C@@H](Cc1ccc(O)cc1)C(=O)N[C@@H](CCCCNC(=O)COCCOCCNC(=O)COCCOCCNC(=O)CC[C@H](NC(=O)CCCCCCCCCCCCCCCCC(=O)O)C(=O)O)C(=O)N[C@@H](CC(C)C)C(=O)N[C@@H](C)C(=O)NCC(=O)NCC(=O)N1CCC[C@H]1C(=O)N[C@@H](CO)C(=O)N[C@@H](CO)C(=O)NCC(=O)N[C@@H](C)C(=O)N1CCC[C@H]1C(=O)N1CCC[C@H]1C(=O)N1CCC[C@H]1C(=O)N[C@@H](CO)C(N)=O)C(C)C)[C@@H](C)CC
With B1 the Ki [1] was 114 nM and the Ki [2] was 0.031 nM.

B2: Example 5 (peptide)
peptide: Y[Aib]EGTFISDYSI[αMeL]LDKIHQ[Aib]DFVEYK([AEEA-AEEA-γGlu-C20 diacid])LEGGPSSGAPPPS-NH2
modifications: N-terminus assumed
SMILES: CC[C@H](C)[C@H](NC(=O)[C@H](CCCCN)NC(=O)[C@H](CC(=O)O)NC(=O)[C@H](CC(C)C)NC(=O)[C@](C)(CC(C)C)NC(=O)[C@@H](NC(=O)[C@H](CO)NC(=O)[C@H](Cc1ccc(O)cc1)NC(=O)[C@H](CC(=O)O)NC(=O)[C@H](CO)NC(=O)[C@@H](NC(=O)[C@H](Cc1ccccc1)NC(=O)[C@@H](NC(=O)CNC(=O)[C@H](CCC(=O)O)NC(=O)C(C)(C)NC(=O)[C@@H](N)Cc1ccc(O)cc1)[C@@H](C)O)[C@@H](C)CC)[C@@H](C)CC)C(=O)N[C@@H](Cc1c[nH]cn1)C(=O)N[C@@H](CCC(N)=O)C(=O)NC(C)(C)C(=O)N[C@@H](CC(=O)O)C(=O)N[C@@H](Cc1ccccc1)C(=O)N[C@H](C(=O)N[C@@H](CCC(=O)O)C(=O)N[C@@H](Cc1ccc(O)cc1)C(=O)N[C@@H](CCCCNC(=O)COCCOCCNC(=O)COCCOCCNC(=O)CC[C@H](NC(=O)CCCCCCCCCCCCCCCCCCC(=O)O)C(=O)O)C(=O)N[C@@H](CC(C)C)C(=O)N[C@@H](CCC(=O)O)C(=O)NCC(=O)NCC(=O)N1CCC[C@H]1C(=O)N[C@@H](CO)C(=O)N[C@@H](CO)C(=O)NCC(=O)N[C@@H](C)C(=O)N1CCC[C@H]1C(=O)N1CCC[C@H]1C(=O)N1CCC[C@H]1C(=O)N[C@@H](CO)C(N)=O)C(C)C
B2 gave a Ki [1] of 619 nM and a Ki [2] of 0.0771 nM.
